One series has as its target T1, AtFUT1 (Arabidopsis thaliana, UniProt Q9SWH5).
T1 sequence (Q9SWH5 84-558 limits assumed): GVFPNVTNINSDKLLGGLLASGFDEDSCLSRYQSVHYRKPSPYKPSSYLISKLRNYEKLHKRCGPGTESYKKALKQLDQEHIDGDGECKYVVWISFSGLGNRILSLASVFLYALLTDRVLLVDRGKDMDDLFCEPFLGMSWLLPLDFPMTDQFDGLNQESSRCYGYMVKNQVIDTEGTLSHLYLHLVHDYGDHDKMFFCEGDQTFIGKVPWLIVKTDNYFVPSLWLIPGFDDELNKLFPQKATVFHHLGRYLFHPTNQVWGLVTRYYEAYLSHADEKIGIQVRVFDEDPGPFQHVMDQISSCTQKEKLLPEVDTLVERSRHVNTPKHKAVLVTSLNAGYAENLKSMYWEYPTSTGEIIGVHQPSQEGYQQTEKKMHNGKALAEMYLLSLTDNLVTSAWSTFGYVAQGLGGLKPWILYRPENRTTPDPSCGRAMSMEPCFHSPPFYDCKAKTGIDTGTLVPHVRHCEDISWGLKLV
Nature of the series: real-time 1H NMR of fucosylation. It is filed as biochemical. As to conditions: 0.4 mM XLLG, 0.4 mM GDP-Fuc, 4.7 μM enzyme, pH 6.8 in D2O, 25°C.

Substrate in series [1]: C[C@@H]1O[C@H](OP(=O)(O)OP(=O)(O)OC[C@H]2O[C@@H](n3cnc4c(=O)[nH]c(N)nc43)[C@H](O)[C@@H]2O)[C@@H](O)[C@H](O)[C@@H]1O
Nature of the series: GDP-Glo luminescent GDP release, Michaelis-Menten fit. As to conditions: donor varied, 750 μM XXLG, 75 mM HEPES pH 6.8, 28°C. Type of series: biochemical, Arabidopsis thaliana.

What is called kcat is the maximal rate divided by the concentration of active sites.

With `OC[C@H]1O[C@@H](O[C@H]2[C@@H](OC[C@H]3O[C@@H](O[C@H]4[C@H](O)[C@@H](O)[C@H](O[C@H]5[C@H](O)[C@@H](O)C(O)O[C@@H]5CO)O[C@@H]4CO[C@H]4OC[C@@H](O)[C@H](O)[C@H]4O[C@@H]4O[C@H](CO)[C@H](O)[C@H](O)[C@H]4O)[C@H](O)[C@@H](O)[C@@H]3O[C@@H]3O[C@H](CO[C@H]4OC[C@@H](O)[C@H](O)[C@H]4O)[C@@H](O)[C@H](O)[C@H]3O)OC[C@@H](O)[C@@H]2O)[C@H](O)[C@@H](O)[C@H]1O` (stereo partly shown) [XLLG], at AtFUT1, the “real-time 1H NMR of fucosylation” value was “The xyloglucan oligosaccharide XLLG (Figure 1a), composed of nine glycosyl residues”.

B1: AtFUT1 (Arabidopsis thaliana; Q452A) (protein)
chain: GVFPNVTNINSDKLLGGLLASGFDEDSCLSRYQSVHYRKPSPYKPSSYLISKLRNYEKLHKRCGPGTESYKKALKQLDQEHIDGDGECKYVVWISFSGLGNRILSLASVFLYALLTDRVLLVDRGKDMDDLFCEPFLGMSWLLPLDFPMTDQFDGLNQESSRCYGYMVKNQVIDTEGTLSHLYLHLVHDYGDHDKMFFCEGDQTFIGKVPWLIVKTDNYFVPSLWLIPGFDDELNKLFPQKATVFHHLGRYLFHPTNQVWGLVTRYYEAYLSHADEKIGIQVRVFDEDPGPFQHVMDQISSCTQKEKLLPEVDTLVERSRHVNTPKHKAVLVTSLNAGYAENLKSMYWEYPTSTGEIIGVHQPSQEGYAQTEKKMHNGKALAEMYLLSLTDNLVTSAWSTFGYVAQGLGGLKPWILYRPENRTTPDPSCGRAMSMEPCFHSPPFYDCKAKTGIDTGTLVPHVRHCEDISWGLKLV
Consider B1, for which, in series [1], the Km was 61.77 (±10.5) μM and the kcat stood at 0.00533 ± 0.000283 s⁻¹.

B2: AtFUT1 (Arabidopsis thaliana; D550A) (protein)
chain: GVFPNVTNINSDKLLGGLLASGFDEDSCLSRYQSVHYRKPSPYKPSSYLISKLRNYEKLHKRCGPGTESYKKALKQLDQEHIDGDGECKYVVWISFSGLGNRILSLASVFLYALLTDRVLLVDRGKDMDDLFCEPFLGMSWLLPLDFPMTDQFDGLNQESSRCYGYMVKNQVIDTEGTLSHLYLHLVHDYGDHDKMFFCEGDQTFIGKVPWLIVKTDNYFVPSLWLIPGFDDELNKLFPQKATVFHHLGRYLFHPTNQVWGLVTRYYEAYLSHADEKIGIQVRVFDEDPGPFQHVMDQISSCTQKEKLLPEVDTLVERSRHVNTPKHKAVLVTSLNAGYAENLKSMYWEYPTSTGEIIGVHQPSQEGYQQTEKKMHNGKALAEMYLLSLTDNLVTSAWSTFGYVAQGLGGLKPWILYRPENRTTPDPSCGRAMSMEPCFHSPPFYDCKAKTGIDTGTLVPHVRHCEAISWGLKLV
Consider B2, for which, in series [1], the Km is given as 55.33 (±6.7) μM and the kcat was 0.00343 ± 0.000167 s⁻¹.

B3: AtFUT1 (Arabidopsis thaliana) (protein)
chain: GVFPNVTNINSDKLLGGLLASGFDEDSCLSRYQSVHYRKPSPYKPSSYLISKLRNYEKLHKRCGPGTESYKKALKQLDQEHIDGDGECKYVVWISFSGLGNRILSLASVFLYALLTDRVLLVDRGKDMDDLFCEPFLGMSWLLPLDFPMTDQFDGLNQESSRCYGYMVKNQVIDTEGTLSHLYLHLVHDYGDHDKMFFCEGDQTFIGKVPWLIVKTDNYFVPSLWLIPGFDDELNKLFPQKATVFHHLGRYLFHPTNQVWGLVTRYYEAYLSHADEKIGIQVRVFDEDPGPFQHVMDQISSCTQKEKLLPEVDTLVERSRHVNTPKHKAVLVTSLNAGYAENLKSMYWEYPTSTGEIIGVHQPSQEGYQQTEKKMHNGKALAEMYLLSLTDNLVTSAWSTFGYVAQGLGGLKPWILYRPENRTTPDPSCGRAMSMEPCFHSPPFYDCKAKTGIDTGTLVPHVRHCEDISWGLKLV
On to B3, for which, in series [1], the Km is 25.32 (±4.2) μM and the kcat worked out at 0.0633 ± 0.000833 s⁻¹.

B4: AtFUT1 (Arabidopsis thaliana; Y486F) (protein)
chain: GVFPNVTNINSDKLLGGLLASGFDEDSCLSRYQSVHYRKPSPYKPSSYLISKLRNYEKLHKRCGPGTESYKKALKQLDQEHIDGDGECKYVVWISFSGLGNRILSLASVFLYALLTDRVLLVDRGKDMDDLFCEPFLGMSWLLPLDFPMTDQFDGLNQESSRCYGYMVKNQVIDTEGTLSHLYLHLVHDYGDHDKMFFCEGDQTFIGKVPWLIVKTDNYFVPSLWLIPGFDDELNKLFPQKATVFHHLGRYLFHPTNQVWGLVTRYYEAYLSHADEKIGIQVRVFDEDPGPFQHVMDQISSCTQKEKLLPEVDTLVERSRHVNTPKHKAVLVTSLNAGYAENLKSMYWEYPTSTGEIIGVHQPSQEGYQQTEKKMHNGKALAEMYLLSLTDNLVTSAWSTFGFVAQGLGGLKPWILYRPENRTTPDPSCGRAMSMEPCFHSPPFYDCKAKTGIDTGTLVPHVRHCEDISWGLKLV
As to B4, in series [1], the Km is recorded as 60.44 (±12.3) μM and the kcat amounted to 0.0016 ± 0.0001 s⁻¹.

B5: AtFUT1 (Arabidopsis thaliana; H523A) (protein)
chain: GVFPNVTNINSDKLLGGLLASGFDEDSCLSRYQSVHYRKPSPYKPSSYLISKLRNYEKLHKRCGPGTESYKKALKQLDQEHIDGDGECKYVVWISFSGLGNRILSLASVFLYALLTDRVLLVDRGKDMDDLFCEPFLGMSWLLPLDFPMTDQFDGLNQESSRCYGYMVKNQVIDTEGTLSHLYLHLVHDYGDHDKMFFCEGDQTFIGKVPWLIVKTDNYFVPSLWLIPGFDDELNKLFPQKATVFHHLGRYLFHPTNQVWGLVTRYYEAYLSHADEKIGIQVRVFDEDPGPFQHVMDQISSCTQKEKLLPEVDTLVERSRHVNTPKHKAVLVTSLNAGYAENLKSMYWEYPTSTGEIIGVHQPSQEGYQQTEKKMHNGKALAEMYLLSLTDNLVTSAWSTFGYVAQGLGGLKPWILYRPENRTTPDPSCGRAMSMEPCFASPPFYDCKAKTGIDTGTLVPHVRHCEDISWGLKLV
With B5, in series [1], the Km was 84.28 (±18.3) μM and the kcat was 0.00123 ± 8.33e-05 s⁻¹.

B6: AtFUT1 (Arabidopsis thaliana; D300A) (protein)
chain: GVFPNVTNINSDKLLGGLLASGFDEDSCLSRYQSVHYRKPSPYKPSSYLISKLRNYEKLHKRCGPGTESYKKALKQLDQEHIDGDGECKYVVWISFSGLGNRILSLASVFLYALLTDRVLLVDRGKDMDDLFCEPFLGMSWLLPLDFPMTDQFDGLNQESSRCYGYMVKNQVIDTEGTLSHLYLHLVHDYGDHDKMFFCEGDQTFIGKVPWLIVKTANYFVPSLWLIPGFDDELNKLFPQKATVFHHLGRYLFHPTNQVWGLVTRYYEAYLSHADEKIGIQVRVFDEDPGPFQHVMDQISSCTQKEKLLPEVDTLVERSRHVNTPKHKAVLVTSLNAGYAENLKSMYWEYPTSTGEIIGVHQPSQEGYQQTEKKMHNGKALAEMYLLSLTDNLVTSAWSTFGYVAQGLGGLKPWILYRPENRTTPDPSCGRAMSMEPCFHSPPFYDCKAKTGIDTGTLVPHVRHCEDISWGLKLV
Consider B6, for which, in series [1], the Km is given as 40.1 (±7.5) μM and the kcat stood at 0.00532 ± 0.000267 s⁻¹.
